B1: Somatostatin receptor type 3 (Mus musculus), P30935 (parent)
chain: MATVTYPSSEPTTLDPGNASSTWPLDTTLGNTSAGASLTGLAVSGILISLVYLVVCVVGLLGNSLVIYVVLRHTSSPSVTSVYILNLALADELFMLGLPFLAAQNALSYWPFGSLMCRLVMAVDGINQFTSIFCLTVMSVDRYLAVVHPTRSARWRTAPVARTVSAAVWVASAVVVLPVVVFSGVPRGMSTCHMQWPEPAAAWRTAFIIYTAALGFFGPLLVICLCYLLIVVKVRSTTRRVRAPSCQWVQAPACQRRRRSERRVTRMVVAVVALFVLCWMPFYLLNIVNVVCPLPEEPAFFGLYFLVVALPYANSCANPILYGFLSYRFKQGFRRILLRPSRRIRSQEPGSGPPEKTEEEEDEEEEERREEEERRMQRGQEMNGRLSQIAQAGTSGQQPRPCTGTAKEQQLLPQEATAGDKASTLSHL
partner: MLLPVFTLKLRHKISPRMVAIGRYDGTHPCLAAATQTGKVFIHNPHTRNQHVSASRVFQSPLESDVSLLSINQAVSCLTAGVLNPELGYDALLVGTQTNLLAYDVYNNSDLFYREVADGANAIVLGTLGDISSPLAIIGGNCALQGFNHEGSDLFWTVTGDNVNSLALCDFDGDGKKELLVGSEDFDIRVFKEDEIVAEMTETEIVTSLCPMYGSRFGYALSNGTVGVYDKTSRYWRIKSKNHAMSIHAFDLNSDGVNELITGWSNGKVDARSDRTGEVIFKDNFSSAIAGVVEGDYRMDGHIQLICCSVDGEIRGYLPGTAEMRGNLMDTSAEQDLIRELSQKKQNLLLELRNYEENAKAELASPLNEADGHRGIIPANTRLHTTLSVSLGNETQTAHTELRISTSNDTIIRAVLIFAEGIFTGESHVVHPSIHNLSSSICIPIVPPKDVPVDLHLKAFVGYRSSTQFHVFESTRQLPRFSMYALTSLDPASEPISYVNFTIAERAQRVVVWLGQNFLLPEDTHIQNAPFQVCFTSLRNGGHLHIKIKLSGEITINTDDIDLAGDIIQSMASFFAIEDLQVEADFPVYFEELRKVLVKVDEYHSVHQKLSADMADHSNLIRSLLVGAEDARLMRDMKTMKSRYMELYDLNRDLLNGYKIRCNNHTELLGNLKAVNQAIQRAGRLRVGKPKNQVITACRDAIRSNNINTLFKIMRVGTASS
B2: ADP-ribosylation factor-like protein 6 (Homo sapiens), Q9H0F7 (parent)
chain: MGLLDRLSVLLGLKKKEVHVLCLGLDNSGKTTIINKLKPSNAQSQNILPTIGFSIEKFKSSSLSFTVFDMSGQGRYRNLWEHYYKEGQAIIFVIDSSDRLRMVVAKEELDTLLNHPDIKHRRIPILFFANKMDLRDAVTSVKVSQLLCLENIKDKPWHICASDAIKGEGLQEGVDWLQDQIQTVKT
partner: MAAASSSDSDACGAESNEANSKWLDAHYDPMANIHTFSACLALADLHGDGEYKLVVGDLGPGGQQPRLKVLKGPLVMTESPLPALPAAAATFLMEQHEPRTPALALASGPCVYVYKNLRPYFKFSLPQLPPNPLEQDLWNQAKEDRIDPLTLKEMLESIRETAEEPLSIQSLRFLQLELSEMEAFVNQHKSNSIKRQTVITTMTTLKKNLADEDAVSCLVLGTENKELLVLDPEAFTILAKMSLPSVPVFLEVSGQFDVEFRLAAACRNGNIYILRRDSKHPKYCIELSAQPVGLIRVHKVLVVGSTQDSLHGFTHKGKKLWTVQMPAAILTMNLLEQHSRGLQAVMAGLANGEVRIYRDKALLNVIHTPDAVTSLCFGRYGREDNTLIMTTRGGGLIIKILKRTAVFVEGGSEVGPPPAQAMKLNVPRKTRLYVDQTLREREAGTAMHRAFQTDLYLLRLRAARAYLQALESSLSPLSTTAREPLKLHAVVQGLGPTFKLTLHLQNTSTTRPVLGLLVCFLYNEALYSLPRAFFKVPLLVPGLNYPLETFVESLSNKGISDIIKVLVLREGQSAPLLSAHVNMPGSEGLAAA

Variants of: B1
Conditions: with bbs2_human BBS2, Q9BXC9
C246A was tested, and the “effect of a mutation on the interaction” value was “disrupting interaction”.
With C246A;Q247A the “effect of a mutation on the interaction” value was “decreasing interaction”.
With Q247A the “effect of a mutation on the interaction” value was “increasing interaction”.
P244A;Q247A was tested, and the “effect of a mutation on the interaction” value was “increasing interaction”.
A243F;Q247F was tested, and the “effect of a mutation on the interaction” value was “increasing interaction”.

Variants of: B2
Conditions: with bbs1_human BBS1, Q8NFJ9
For Q73L, the “effect of a mutation on the interaction” value was “increasing interaction”.

— IntAct's records for PubMed 20603001
